Biological target: T1, WT1 peptide on HLA-A*02:01 (human)
T1 peptide: VLDFAPPGA
Assay: multimer staining

| Binder | binding result |
| --- | --- |
| TCR of Patient 2, alpha 2 and beta 2 (TCR, V domains shown) Valpha: GENVEQHPSTLSVQEGDSAVIKCTYSDSASNYFPWYKQELGKRPQLIIDIRSNVGEKKDQRIAVTLNKTAKHFSLHITETQPEDSAVYFCAATSRDDMRFGAGTRLTVKP Vbeta: DAMVIQNPRYQVTQFGKPVTLSCSQTLNHNVMYWYQQKSSQAPKLLFHYYDKDFNNEADTPDNFQSRRPNTSFCFLDIRSPGLGDAAMYLCATSWGLNEQYFGPGTRLTVT | recognises |
| TCR of Patient 3, alpha 1 and beta (TCR, V domains shown) Valpha: AQKVTQAQTEISVVEKEDVTLDCVYETRDTTYYLFWYKQPPSGELVFLIRRNSFDEQNEISGRYSWNFQKSTSSFNFTITASQVVDSAVYFCALPDKVIFGPGTSLSVIP Vbeta: DSGVTQTPKHLITATGQRVTLRCSPRSGDLSVYWYQQSLDQGLQFLIQYYNGEERAKGNILERFSAQQFPDLHSELNLSSLELGDSALYFCASSVSAGSTGELFFGEGSRLTVL | recognises |
| TCR of Patient 3, alpha 2 and beta (TCR, V domains shown) Valpha: GQQLNQSPQSMFIQEGEDVSMNCTSSSIFNTWLWYKQEPGEGPVLLIALYKAGELTSNGRLTAQFGITRKDSFLNISASIPSDVGIYFCAGLYATNKLIFGTGTLLAVQP Vbeta: DSGVTQTPKHLITATGQRVTLRCSPRSGDLSVYWYQQSLDQGLQFLIQYYNGEERAKGNILERFSAQQFPDLHSELNLSSLELGDSALYFCASSVSAGSTGELFFGEGSRLTVL | recognises |
| TCR of Patient 1, alpha 1 and beta (growing colony) (TCR, V domains shown) Valpha: AQSVAQPEDQVNVAEGNPLTVKCTYSVSGNPYLFWYVQYPNRGLQFLLKYITGDNLVKGSYGFEAEFNKSQTSFHLKKPSALVSDSALYFCAVRDGGATNKLIFGTGTLLAVQP Vbeta: EAQVTQNPRYLITVTGKKLTVTCSQNMNHEYMSWYRQDPGLGLRQIYYSMNVEVTDKGDVPEGYKVSRKEKRNFPLILESPSPNQTSLYFCASSTLGGELFFGEGSRLTVL | recognises |
| TCR of Patient 2, alpha 1 and beta 1 (TCR, V domains shown) Valpha: AQSVTQLDSQVPVFEEAPVELRCNYSSSVSVYLFWYVQYPNQGLQLLLKYLSGSTLVESINGFEAEFNKSQTSFHLRKPSVHISDTAEYFCAVTLLSIEPSAGGYQKVTFGIGTKLQVIP Vbeta: DTGVSQNPRHKITKRGQNVTFRCDPISEHNRLYWYRQTLGQGPEFLTYFQNEAQLEKSRLLSDRFSAERPKGSFSTLEIQRTEQGDSAMYLCASSLEGRAMPRDSHQETQYFGPGTRLLVL | recognises |
| TCR of Patient 2, alpha 1 and beta 2 (TCR, V domains shown) Valpha: AQSVTQLDSQVPVFEEAPVELRCNYSSSVSVYLFWYVQYPNQGLQLLLKYLSGSTLVESINGFEAEFNKSQTSFHLRKPSVHISDTAEYFCAVTLLSIEPSAGGYQKVTFGIGTKLQVIP Vbeta: DAMVIQNPRYQVTQFGKPVTLSCSQTLNHNVMYWYQQKSSQAPKLLFHYYDKDFNNEADTPDNFQSRRPNTSFCFLDIRSPGLGDAAMYLCATSWGLNEQYFGPGTRLTVT | recognises |
| TCR of Patient 2, alpha 2 and beta 1 (TCR, V domains shown) Valpha: GENVEQHPSTLSVQEGDSAVIKCTYSDSASNYFPWYKQELGKRPQLIIDIRSNVGEKKDQRIAVTLNKTAKHFSLHITETQPEDSAVYFCAATSRDDMRFGAGTRLTVKP Vbeta: DTGVSQNPRHKITKRGQNVTFRCDPISEHNRLYWYRQTLGQGPEFLTYFQNEAQLEKSRLLSDRFSAERPKGSFSTLEIQRTEQGDSAMYLCASSLEGRAMPRDSHQETQYFGPGTRLLVL | recognises |
